Where no end group is shown, it is not given here.
Experiments:
[1] = biological target: CD89 (Fc receptor for IgA) on polymorphonuclear cells (human, UniProt P24071 22-287); assay: cell-based or functional assay
[2] = biological target: IgA (monomeric serum IgA, coated on beads or plates) (human, UniProt P01876-1 1-353); assay: cell-based or functional assay
IgA (monomeric serum IgA, coated on beads or plates), sequence (P01876 other isoform, or with tags, fused parts or gaps): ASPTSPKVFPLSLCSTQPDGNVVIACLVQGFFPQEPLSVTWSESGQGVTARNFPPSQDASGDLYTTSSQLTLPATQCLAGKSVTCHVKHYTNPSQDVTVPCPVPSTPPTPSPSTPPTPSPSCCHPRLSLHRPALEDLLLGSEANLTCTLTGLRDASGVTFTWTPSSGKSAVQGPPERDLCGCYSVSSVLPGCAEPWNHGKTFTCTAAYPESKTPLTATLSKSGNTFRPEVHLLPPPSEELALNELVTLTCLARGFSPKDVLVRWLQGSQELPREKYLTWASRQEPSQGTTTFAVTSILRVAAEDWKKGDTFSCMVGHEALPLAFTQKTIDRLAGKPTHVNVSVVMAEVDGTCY

CD89 (Fc receptor for IgA) on polymorphonuclear cells, sequence (P24071 22-287): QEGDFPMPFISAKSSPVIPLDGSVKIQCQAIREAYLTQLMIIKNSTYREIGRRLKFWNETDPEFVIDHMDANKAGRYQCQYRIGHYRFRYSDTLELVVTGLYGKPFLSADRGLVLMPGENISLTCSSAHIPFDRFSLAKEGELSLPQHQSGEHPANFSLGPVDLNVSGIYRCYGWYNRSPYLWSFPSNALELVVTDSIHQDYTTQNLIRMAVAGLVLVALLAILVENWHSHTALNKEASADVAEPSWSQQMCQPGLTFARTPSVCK

| percentage blocking (polymorphonuclear cells bound to IgA-coated beads, 2-D migration assay) [1] | percentage blocking (polymorphonuclear cells bound to IgA-coated beads, 2-D migration assay) [2] | Binder |
| --- | --- | --- |
| ≤ 20% |  | CSMVGHEALPLAFTQKC-NH2 (cysteine pairing not given here) [peptide PEO-47 mP2#2,3] |
|  | ≤ 19% | REIGRRLKFWNETDP [Peptide Fc alpha 113] |
| ≤ 18% |  | HEALPLAFTQK-NH2 [peptide IgA CH3] |
